Experiment [1] deals with T1, RTX751 (ACT residues 751–1706) (Bordetella pertussis (strain Tohama I / …, UniProt P0DKX7)).
T1 construct: also called full RTX domain; full RTX
Nature of the experiment: SPR. The settings on record: both partners purified.

In experiment [2] the target is T2, 123cap (cap fusion variant F5: RTX blocks I–III fused to the block V capping structure) (Bordetella pertussis (strain not named …, stabilised)).
T2 construct: source: E. coli BL21 DE3, purified (Ni-NTA, SEC); not shown: 8xHis, N-terminal, kept
T2 chain: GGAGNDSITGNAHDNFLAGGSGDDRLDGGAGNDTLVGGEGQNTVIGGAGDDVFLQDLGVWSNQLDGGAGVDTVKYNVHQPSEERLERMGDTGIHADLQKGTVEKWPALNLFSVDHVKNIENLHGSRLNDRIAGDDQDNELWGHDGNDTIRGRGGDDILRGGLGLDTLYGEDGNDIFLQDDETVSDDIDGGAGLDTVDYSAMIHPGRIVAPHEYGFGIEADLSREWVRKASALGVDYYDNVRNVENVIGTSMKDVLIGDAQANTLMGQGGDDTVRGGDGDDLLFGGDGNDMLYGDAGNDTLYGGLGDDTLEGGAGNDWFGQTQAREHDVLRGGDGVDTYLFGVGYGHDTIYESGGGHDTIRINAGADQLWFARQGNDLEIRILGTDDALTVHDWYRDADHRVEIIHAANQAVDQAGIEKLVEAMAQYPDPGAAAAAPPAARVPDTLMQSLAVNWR
Nature of the experiment: SPR. The conditions noted are these: both partners purified.

B1: M1H5 Fab (Fab, V domains shown)
VH: EVNLVESGGDLVKPGGSLKLSCAASGFTFSSYGMSWVRQTPDKRLEWVATISSGGTYTYYPDSVKGRFTISRDNAKNTLYLQMSSLKSEDTAMYYCAREIMRGGGYYFDYWSQGTTLTVSS
VL: DIQMIQSTSSLSASLGDRVTISCRASQDISNYLNWYQQKPDGTVKLLIYYTSRLHSGVPSRFSGSGSGTDYSLTISNLEQEDIATYFCQQGNTLPYTFGGGTKLEIK
The term Kd denotes the equilibrium constant for the complex coming apart. Lower therefore signals a tighter complex. As to B1, the values for the Kd in experiment [1] and in experiment [2] were 0.8 nM and 0.7 nM, respectively.

B2: M2B10 Fab (Fab, V domains shown)
VH: EVQLQQSGAELVRPGTSVKVSCKASGYAFTNYLIEWVKQRPGQGLEWIGVINPGIGNTNYNEKFKGKATLTADKSSSTVYMQLSSLTSDDSAVYFCARGLNYGSSQHWYFDVWGAGTSVTVSS
VL: IVMTQSPAILSASLGERVTMTCTASSSVSSSYLHWYQQKPGSSPKLWIYSTSNLASGVPARFSGSGSGTSYSLTISSMEAEDAATYYCHQYHRSPPTFGAGTKLEIK
Consider B2, for which the Kd came to 0.75 nM in experiment [1] and 0.6 nM in experiment [2].

Values taken from paper PMC8486122, “Structural basis for antibody binding to adenylate cyclase toxin reveals RTX linkers as neutralization-sensitive epitopes” (PLoS Pathogens, 2021).
